According to article PMC4005678, “Structural basis for Klf4 recognition of methylated DNA”:

Molecular target: Klf4 ZnF1-3 DNA-binding domain (mouse, UniProt Q60793 396-483)
Assay: X-ray crystallography (1.85 A); 3 Zn2+; FP: 20 mM Tris-HCl pH 7.5, 150 mM NaCl, 5% (v/v) glycerol, 0.5 mM TCEP, ~22 C; probe 10 nM (WT) or 1 nM (E446A)
Conditions: protein: recombinant; tags: GST tag removed; N-terminal GPLGS left; blunt

Chain of Klf4 ZnF1-3 DNA-binding domain (Q60793 396-483): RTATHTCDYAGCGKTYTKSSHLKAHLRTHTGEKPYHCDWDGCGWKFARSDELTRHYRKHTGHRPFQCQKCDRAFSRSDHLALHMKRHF

B1: crystal 10-mer M/M (dsDNA)
DNA 1: GAGGCGTGGC
DNA 2: GCCACGCCTC
modifications: 5mC at position 5 of strand 1 and position 5 of strand 2
B1: binds.
